In PMC3323696:

Assays:
[1] = target: tubulin (α-tubulin) (mouse (endogenous in striatum)) (UniProt P68369); experiment: co-IP
[2] = target: GABAA receptor (GABAAR β2/3 subunits) (mouse (endogenous in striatum)) (UniProt P63137); experiment: co-IP
UniProt P63137, sequence (P63137 whole entry, looked up): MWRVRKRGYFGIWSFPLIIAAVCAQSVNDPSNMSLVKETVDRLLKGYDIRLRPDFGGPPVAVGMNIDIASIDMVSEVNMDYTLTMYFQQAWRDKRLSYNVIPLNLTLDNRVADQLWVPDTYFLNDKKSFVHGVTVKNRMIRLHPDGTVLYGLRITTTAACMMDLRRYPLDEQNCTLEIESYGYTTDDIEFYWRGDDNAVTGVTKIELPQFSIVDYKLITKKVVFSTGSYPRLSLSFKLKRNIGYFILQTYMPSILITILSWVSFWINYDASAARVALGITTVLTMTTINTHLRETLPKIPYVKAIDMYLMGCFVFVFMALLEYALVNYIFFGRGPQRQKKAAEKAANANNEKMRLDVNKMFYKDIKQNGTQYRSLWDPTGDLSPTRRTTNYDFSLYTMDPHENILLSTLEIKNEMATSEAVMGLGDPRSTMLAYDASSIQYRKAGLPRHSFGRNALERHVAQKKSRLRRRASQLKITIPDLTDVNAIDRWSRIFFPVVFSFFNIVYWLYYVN

Molecule: GABAA receptor (GABAAR β2/3 subunits) (from UniProt P63137 26-512; P63080 26-473)
- co-precipitated amount in HD (N171-82Q) mice, % of WT mice [1]: 65.3 % of WT

Molecule: KIF5 heavy chain (from UniProt Q61768 1-963) (natural protein)
- co-precipitated amount in HD (N171-82Q) mice, % of WT mice [1]: 35.5 % of WT
- co-precipitated amount in HD (N171-82Q) mice, % of WT mice [2]: 41.5 % of WT

Molecule: tubulin (α-tubulin) (from UniProt P68369 1-451) (natural protein)
- co-precipitated amount in HD (N171-82Q) mice, % of WT mice [2]: 67.4 % of WT

B1: huntingtin associated protein 1 (HAP1) (natural protein)
chain: MRPKEQVQSGAGDGTGSGDPAAGTPTTQPAVGPAPEPSAEPKPAPAQGTGSGQKSGSRTKTGSFCRSMIIGDSDAPWTRYVFQGPYGPRATGLGTGKAEGIWKTPAAYIGRRPGVSGPERAAFIRELQEALCPNPPPTKKITEDDVKVMLYLLEEKERDLNTAARIGQSLVKQNSVLMEENNKLETMLGSAREEILHLRKQVNLRDDLLQLYSDSDDDDDEEDEEDEEEGEEEEREGQRDQDQQHDHPYGAPKPHPKAETAHRCPQLETLQQKLRLLEEENDHLREEASHLDNLEDEEQMLILECVEQFSEASQQMAELSEVLVLRLEGYERQQKEITQLQAEITKLQQRCQSYGAQTEKLQQMLASEKGIHSESLRAGSYMQDYGSRPRDRQEDGKSHRQRSSMPAGSVTHYGYSVPLDALPSFPETLAEELRTSLRKFITDPAYFMERRDTHCREGRKKEQRAMPPPPAQDLKPPEDFEAPEELVPEEELGAIEEVGTAEDGQAEENEQASEETEAWEEVEPEVDETTRMNVVVSALEASGLGPSHLDMKYVLQQLSNWQDAHSKRQQKQKVVPKDSPTPQQQTNMGGGILEQQPRVPTQDSQRLEEDRATHSPSAREEEGPSGAT
- co-precipitated amount in HD (N171-82Q) mice, % of WT mice [2]: 42.9 % of WT
